Where only a bound is given, the exact number is not on record here.

In this experiment the target is Toll-like Receptor 5 (TLR5) constitutively expressed by HEK293 cells (UniProt O60602). Description: cell-based or functional assay.

B1: STF2.HA1-3(PR8), produced in E. coli (protein)
chain: MAQVINTNSLSLLTQNNLNKSQSALGTAIERLSSGLRINSAKDDAAGQAIANRFTANIKGLTQASRNANDGISIAQTTEGALNEINNNLQRVRELAVQSANSTNSQSDLDSIQAEITQRLNEIDRVSGQTQFNGVKVLAQDNTLTIQVGANDGETIDIDLKQINSQTLGLDSLNVQKAYDVKDTAVTTKAYANNGTTLDVSGLDDAAIKAATGGTNGTASVTGGAVKFDADNNKYFVTIGGFTGADAAKNGDYEVNVATDGTVTLAAGATKTTMPAGATTKTEVQELKDTPAVVSADAKNALIAGGVDATDANGAELVKMSYTDKNGKTIEGGYALKAGDKYYAADYDEATGAIKAKTTSYTAADGTTKTAANQLGGVDGKTEVVTIDGKTYNASKAAGHDFKAQPELAEAAAKTTENPLQKIDAALAQVDALRSDLGAVQNRFNSAITNLGNTVNNLSEARSRIEDSDYATEVSNMSRAQILQQAGTSVLAQANQVPQNVLSLLANSENGICYPGDFIDYEELREQLSSVSSFERFEIFPKESSWPNHNTNGVTAACSHEGKSSFYRNLLWLTEKEGSYPKLKNSYVNKKGKEVLVLWGIHHPPNSKEQQNLYQNENAYVSVVTSNYNRRFTPEIAERPKVRDQAGRMNYYWTLLKPGDTIIFEANGNLIAPMYAFALSRG
As for B1, the TLR5 activity (EC50, ng/ml) amounted to 1.2 ng/mL.

B2: STF2.HA1-2(PR8), produced in E. coli (protein)
chain: MAQVINTNSLSLLTQNNLNKSQSALGTAIERLSSGLRINSAKDDAAGQAIANRFTANIKGLTQASRNANDGISIAQTTEGALNEINNNLQRVRELAVQSANSTNSQSDLDSIQAEITQRLNEIDRVSGQTQFNGVKVLAQDNTLTIQVGANDGETIDIDLKQINSQTLGLDSLNVQKAYDVKDTAVTTKAYANNGTTLDVSGLDDAAIKAATGGTNGTASVTGGAVKFDADNNKYFVTIGGFTGADAAKNGDYEVNVATDGTVTLAAGATKTTMPAGATTKTEVQELKDTPAVVSADAKNALIAGGVDATDANGAELVKMSYTDKNGKTIEGGYALKAGDKYYAADYDEATGAIKAKTTSYTAADGTTKTAANQLGGVDGKTEVVTIDGKTYNASKAAGHDFKAQPELAEAAAKTTENPLQKIDAALAQVDALRSDLGAVQNRFNSAITNLGNTVNNLSEARSRIEDSDYATEVSNMSRAQILQQAGTSVLAQANQVPQNVLSLLAKGIAPLQLGKCNIAGWLLGNPECDPLLPVRSWSYIVETPNSENGICYPGDFIDYEELREQLSSVSSFERFEIFPKESSWPNHNTNGVTAACSHEGKSSFYRNLLWLTEKEGSYPKLKNSYVNKKGKEVLVLWGIHHPPNSKEQQNLYQNENAYVSVVTSNYNRRFTPEIAERPKVRDQAGRMNYYWTLLKPGDTIIFEANGNLIAPMYAFALSRGFGSGIITS
The molecule B2 gave a TLR5 activity (EC50, ng/ml) of 0.15 ng/mL.

B3: STF2.HA1-2(PR8)mut, produced in E. coli (protein)
chain: MAQVINTNSLSLLTQNNLNKSQSALGTAIERLSSGLRINSAKDDAAGQAIANRFTANIKGLTQASRNANDGISIAQTTEGALNEINNNLQRVRELAVQSANSTNSQSDLDSIQAEITQRLNEIDRVSGQTQFNGVKVLAQDNTLTIQVGANDGETIDIDLKQINSQTLGLDSLNVQKAYDVKDTAVTTKAYANNGTTLDVSGLDDAAIKAATGGTNGTASVTGGAVKFDADNNKYFVTIGGFTGADAAKNGDYEVNVATDGTVTLAAGATKTTMPAGATTKTEVQELKDTPAVVSADAKNALIAGGVDATDANGAELVKMSYTDKNGKTIEGGYALKAGDKYYAADYDEATGAIKAKTTSYTAADGTTKTAANQLGGVDGKTEVVTIDGKTYNASKAAGHDFKAQPELAEAAAKTTENPLQKIDAALAQVDALRSDLGAVQNRFNSAITNLGNTVNNLSEARSRIEDSDYATEVSNMSRAQILQQAGTSVLAQANQVPQNVLSLLAKGAAPLQLGKCNIAGWLLGNPECDPLLPVRSWSDIAETPNSENGICYPGDFIDYEELREQLSSVSSFERFEIFPKESSWPNHNTNGVTAACSHEGKSSFYRNLLWLTEKEGSYPKLKNSYVNKKGKEVLVLWGIHHPPNSKEQQNLYQNENAYVSVVTSNYNRRFTPEIAERPKVRDQAGRMNYYWTLLKPGDTIIFEANGNLIAPMYAFALSRGFGSGIITS
Turning to B3, the TLR5 activity (EC50, ng/ml) stood at 1.2 ng/mL.

B4: STF2.HA1-1His(PR8), produced in Baculovirus (protein)
chain: AQVINTNSLSLLTQNNLNKSQSALGTAIERLSSGLRINSAKDDAAGQAIANRFTANIKGLTQASRNANDGISIAQTTEGALNEINNNLQRVRELAVQSANSTNSQSDLDSIQAEITQRLNEIDRVSGQTQFNGVKVLAQDNTLTIQVGANDGETIDIDLKQINSQTLGLDSLNVQKAYDVKDTAVTTKAYANNGTTLDVSGLDDAAIKAATGGTNGTASVTGGAVKFDADNNKYFVTIGGFTGADAAKNGDYEVNVATDGTVTLAAGATKTTMPAGATTKTEVQELKDTPAVVSADAKNALIAGGVDATDANGAELVKMSYTDKNGKTIEGGYALKAGDKYYAADYDEATGAIKAKTTSYTAADGTTKTAANQLGGVDGKTEVVTIDGKTYNASKAAGHDFKAQPELAEAAAKTTENPLQKIDAALAQVDALRSDLGAVQNRFNSAITNLGNTVNNLSEARSRIEDSDYATEVSNMSRAQILQQAGTSVLAQANQVPQNVLSLLASGSGSGSSHNGKLCRLKGIAPLQLGKCNIAGWLLGNPECDPLLPVRSWSYIVETPNSENGICYPGDFIDYEELREQLSSVSSFERFEIFPKESSWPNHNTNGVTAACSHEGKSSFYRNLLWLTEKEGSYPKLKNSYVNKKGKEVLVLWGIHHPPNSKEQQNLYQNENAYVSVVTSNYNRRFTPEIAERPKVRDQAGRMNYYWTLLKPGDTIIFEANGNLIAPMYAFALSRGFGSGIITSNASMHECNTKCQTPLGAINSSLPYQNIHPVTIGECPKYVRHHHHHH
With B4, the TLR activity (EC50, ng/ml) is 3 ng/mL.

B5: STF2.EIII+ (protein)
chain: MAQVINTNSLSLLTQNNLNKSQSALGTAIERLSSGLRINSAKDDAAGQAIANRFTANIKGLTQASRNANDGISIAQTTEGALNEINNNLQRVRELAVQSANSTNSQSDLDSIQAEITQRLNEIDRVSGQTQFNGVKVLAQDNTLTIQVGANDGETIDIDLKQINSQTLGLDSLNVQKAYDVKDTAVTTKAYANNGTTLDVSGLDDAAIKAATGGTNGTASVTGGAVKFDADNNKYFVTIGGFTGADAAKNGDYEVNVATDGTVTLAAGATKTTMPAGATTKTEVQELKDTPAVVSADAKNALIAGGVDATDANGAELVKMSYTDKNGKTIEGGYALKAGDKYYAADYDEATGAIKAKTTSYTAADGTTKTAANQLGGVDGKTEVVTIDGKTYNASKAAGHDFKAQPELAEAAAKTTENPLQKIDAALAQVDALRSDLGAVQNRFNSAITNLGNTVNNLSEARSRIEDSDYATEVSNMSRAQILQQAGTSVLAQANQVPQNVLSLLRKGNSKLEGQLEFPRTSMEKLQLKGTTYGVCSKAFKFLGTPADTGHGTVVLELQYTGTDGPCKVPISSVASLNDLTPVGRLVTVNPFVSVATANAKVLIELEPPFGDSYIVVGRGEQQINHHWHKSGSSIGK
For B5, the TLR-5 EC50 (batch 052) is > 5000 ng/mL, the TLR-5 EC50 (batch 054) was 1200 ng/mL and the TLR-5 EC50 (batch 057) stood at 198 ng/mL.

For the origin of these results see patent US20130224798A1.
